Target: FLAG-tagged CysD3 (DIO3, NM_001362, selenocysteine codon replaced with cysteine) (UniProt P55073)
Test: co-IP

Chain of FLAG-tagged CysD3 (DIO3, NM_001362, selenocysteine codon replaced with cysteine) (P55073 whole entry): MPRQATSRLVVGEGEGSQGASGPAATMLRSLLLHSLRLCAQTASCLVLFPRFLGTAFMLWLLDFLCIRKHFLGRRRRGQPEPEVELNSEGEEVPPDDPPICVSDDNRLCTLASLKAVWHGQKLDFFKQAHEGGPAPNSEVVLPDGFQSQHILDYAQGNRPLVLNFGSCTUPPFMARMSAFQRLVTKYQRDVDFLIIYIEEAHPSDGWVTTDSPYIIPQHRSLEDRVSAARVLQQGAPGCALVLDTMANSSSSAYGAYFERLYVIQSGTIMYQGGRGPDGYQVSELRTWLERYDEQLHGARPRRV
Chain of Myc-tagged β3 integrin (NM_000212.2) (P05106 27-788): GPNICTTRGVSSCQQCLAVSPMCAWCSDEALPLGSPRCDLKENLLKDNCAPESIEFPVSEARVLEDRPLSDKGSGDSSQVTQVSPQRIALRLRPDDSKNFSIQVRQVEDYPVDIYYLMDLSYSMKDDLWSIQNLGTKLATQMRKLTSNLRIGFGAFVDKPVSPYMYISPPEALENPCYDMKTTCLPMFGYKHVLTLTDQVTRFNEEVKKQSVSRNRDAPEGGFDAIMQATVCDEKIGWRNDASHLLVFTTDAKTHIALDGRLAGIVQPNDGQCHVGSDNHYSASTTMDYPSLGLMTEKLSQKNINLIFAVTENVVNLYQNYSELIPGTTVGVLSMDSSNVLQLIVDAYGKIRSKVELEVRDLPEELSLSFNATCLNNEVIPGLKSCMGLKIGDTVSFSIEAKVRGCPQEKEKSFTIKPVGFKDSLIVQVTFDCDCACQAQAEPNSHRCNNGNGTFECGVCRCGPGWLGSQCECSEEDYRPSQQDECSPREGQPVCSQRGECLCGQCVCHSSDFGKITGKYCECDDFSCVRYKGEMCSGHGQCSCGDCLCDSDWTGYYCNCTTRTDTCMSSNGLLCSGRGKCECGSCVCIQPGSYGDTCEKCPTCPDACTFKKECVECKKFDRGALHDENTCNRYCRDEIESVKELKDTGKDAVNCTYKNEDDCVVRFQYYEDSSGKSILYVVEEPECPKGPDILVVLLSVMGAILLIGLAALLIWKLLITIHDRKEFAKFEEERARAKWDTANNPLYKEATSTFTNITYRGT

fold reduction of the co-immunoprecipitation in the presence of cRGD and Tetrac: > 2 fold
Substance: Myc-tagged β3 integrin (NM_000212.2) (from UniProt P05106-1 27-788) (receptor)

From publication PMC8517284
